For 47 sequences, protease stability score results are on record in the NTF2 design screens of Basanta et al. (2020).

A short description of this series: protease stability score; higher = more stable; yeast display proteolysis, trypsin and chymotrypsin.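 Note: relative to predicted unfolded state with 0 unfolded-like and 1 meaning tenfold more protease.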
With “SELEELMHKFAKLFIHLWETGNEELLTKMADPNTRLIINGREVIGMERLLEVFHYIKTEIRLDTMRLEHIDWQGNKAHSHTRLHGEFNGRRHEDESEIHIRVIDGRVHTFEIRFK”, the protease stability score worked out at 1.2.
With “SELEELMKRLVKDWLHNWITGNEDRIWELADPDALVHFDGVISHGREEVIKLIRRFTEELRIHRIQIDHIKIQGDKIHIHLTEDGTIGDKRKEINVEIILFIINGKFKSSEIRIR” the figure was 1.49.
With “SELEELSKEALERHNKDLRTGDWEELWRLLDPNVKLIVNGRHVHGREDATKFLLDWVRQVDHIRSIHIEDYKFQGNKLILHVRYQMDVDGKRDSREMTIYASKVDGRWIVESIEFR” the figure was 1.64; with “SELEELSKHHLELLTHSHRTGDEKSFVELLDPHARIHQGDFHFHGRKLIDEFFRQARIHHIHVDDSELQGNWVFVHGRVEGNFNGVRSKITTHIIELKVNGRWLLHNVHIA”, 0.779; with “SELEELTEEAVKHILHIWETGDEEMSHDLVDPHVRVHVNGQKYHGRENAVEHISKLKGAKWHLRRFEVIDGKIHVDGQFHFNGRHHEVRVVIRKINGRWLIHEIQID”, 1.77.
The same measure for “SELEELVKRILKFILHSWDTGDEEFDKHMADPNVRVIYNGVDLHGMHTKDDLIKRLGWEQESRIRSIRAIGEKAHMDVELVWRFDGQQRDHDTRVHLDIVNGRSKNMEIRFK”: 0.165.
Sequence “SELEELWKRLLEEFVRLLHTGNEERILDLMDPHARVHTTFENHEFHDHGREAFHIMWEEFGINHLEFHRVRLFNGQVDITGSVNVNGREMETRIHLYIINGRVHQTIFRFR” yielded a protease stability score of 0.996.
With “SELEELWRKMVEFQERSNTTGDEKSFLEMLDPDMRIIIGDFEFHGRENAKDYLRRVDHIHHVEYRRVDLQGDKAHIEMHINGHWDGRTHRTDTHLHLRKFNGRWHVEDVQVD” the figure was 1.41.
Sequence “SELEEQERTHIHKLMNAIETGDEDLFRRLFDPNVRVDVDGVEFIGREHLLILLRHMRMHARHFKEEDFSVQGDKVHLYGHLDEEIEINGKVTRRHIHVTWVLVKVNGKWVIHSQYVL” showed a protease stability score of 1.41.
The same measure for “SELEEQVKYALELFIRTFETGDEDLSSQLLDPNTRLEINGREIHGRELVSKFWLKFATEMRLRRTHTRSIRNVDGKAINHTTIDVEIGDKRTTIDVELIAYKFDGRWVNEKIQFH”: 0.828.
With “SELEERAEKMTKEFERAFVTGNWEEQVKLLDPNVRIDINGVIFVGREQYERLVREIWMHVEDFRVTSLELQGEKARTHVESDVIIRVNGRDIRKKTEEEIVVSKINGVWSVERIHVR” the figure was 1.24; with “SELEESLEKFLRALRHLTETGDEDTWKRLLDPTTRLEINGKEIHGREDVSRHWKELRFRSEDPKDYKIVDGVLRLDTRVDGVFNGQHREVDVEVIVFKVDGRWEIKRIRYH”, 1.56.
With “SELEESVRWAAEVFVKYTLTGNEHLLSRYFDPNVRVHFDGVDLHGREELSKLFLHIRFRRIHLRSEKEFEGHAELDQEHDGHYNGVRHNRTLRLHMIKINGQWITEVFILH” the figure was 1.34.
“SELEETLKRSYELLSRILETGDEHRLKSLADPHTRMDFNGVEVHGMHLTVQWMKEFGADHEQYEVRIKRLDVQGDKLHSHGLLIIRIFINGRTIDLKIETHMHAEKIDGRWVIREIIWR”: the protease stability score was 1.36.
With “SELEEWLFHFVKRFIRAELTGDEEEMLHLLDPNARMIIGDKHIHGRENIMELVRHFWHEIRIDHIEIKHVDFQGDKVIIHGQSDGQINGQRTTVDVRIQLIIINGRLKLLEFDNR”, the protease stability score was 1.71.
“SELEEWTERMAKQMLDDVETGDEDRLLKLADPHVRVEFIVDGKIEEVHGREELRKLMERLGIKHFEIKRVSIRVIDGRIHVHNDGHMIIDGKTIPVQLHIHAEKVNGRWRVTDLSIRVG”: the protease stability score came out at 1.51.
The same measure for “SELEEYLTYLSKLFVHALITGNEDKYTEEFDPRTRFEMLINGRRIEYHGRESVREFLRHFLEEWRIHHIDTTEIEFIGDKARIHGEQEVHFNGRNITTKVRIDILFYNGKMRDIRIEIE”: 2.15; for “SELEHDARNAEHWFEETFRTGDEEDRERLLDPHVLVEFNGREYIGWHVFQKFFNDLGVDHMEVRIHDSKVFNGRVHLDGELTIRQGDKLIRSHVHLILTKVDGRWRMREIRIH”: 1.73; for “SELEHEMVEFFRLLVHAWRTGNEELAHRLIDPNVRLDVNGRHFHGWEEFFRFYKEIRLKDADLDSFRIIDGRVELDGTMHMEQGDKSRSVESHVLLEKIDGRWIVRSVRFH”: 1.44.
As for “SELEHLMEEAWRLLLEAIRTGDEKLTNKLLDPNVRIEVGEFHYHGRELMLTWFKYELKHLRFKDSRIDHFDVVDGVAKMRTTDTNLVNGRDVTLDVIYVILKVNGRWVFHSMEIR”, the protease stability score came out at 0.861.
With “SELEHLTEEVAERVLRVLLTGNEHWLDRLLDPHVRLHVNGQDFHGRENVKRWMHELGVDHREIEIEDYRSINGVFIVWGHIRIHQGEKEIKFKSEHIFVVFNGKMQSMEIRIL” the figure was 1.58; with “SELEHMLREVLHLLYESLETGDEELLETLVDPRMRLYINGQLIHGMDLAVEIELRRSREMRFRDWKIHSIHVQGNKAFMDVRHVGQINGVHISLEHEILIHKINGRWTIEERITK”, 0.43.
The same measure for “SELEHQVRKFVEIYVEAMRTGDEDVLRELADPHVRVVIGDKELHGWEEVVHKLRELRLEEIRVDRVRVIGDYVYVDGHSVWTYGDKRIEQRDIFTIRKVNGRWVLHDVILR”: 1.99.
The same measure for “SELEHVEEKLLRDLVNAIKTGDEEFFNRLLDPDDRLHEKQGDKTIDFIGREEWKRFLSQIKNLKVEFRDVDLWNGRIHMRVVIIINGREHDLELEYVIVNGRFKQFHVRIR”: 2.2.
In the case of “SELEHWAERLTRILIHSLYTGDEESLLKLADPRVRNDVNGVHVVGMEWFLKVWNKYRDELRIHHIEVRDIKIINGVAHSTVREDGEINGKKLDVETHVELDTVNGRLRIVHIRIV”, the protease stability score turned out to be 1.58.
With “SELEKDQEDFVRIVEEMMNTGDEHVFKNLADPHVRNDVNGKDVHGRELVTKIWHFLLRHLGINHIELKHVEIYGNKVIIHMEERVGDKRVELVIVAEKVNGKWYLSEIRFEHK” the figure was 1.28.
The same measure for “SELEKELREFIKKVVEALATGDEDLLRELFDPHVRVKIGEWHFIGMEEMLRLIREIRMEIEEVRITELQIQGDKIHMETRLHGRLHIGDKERQTHYSTRVNVRKIDGQWITKSWEVH”: 2.04; for “SELEKFHEESLKSVLESWITGDEHLNRDLVDPDAKLNVNGREHHGWELITILLSQMRVHDFKRRDIRFQGDKIFIDGEIDGEINGQRIRLRIDIIAVKVNGKWLIKEVRVH”: 1.69.
The same measure for “SELEKFIRKYSDDWRELHRTGDFEIFQELADPHMIFHSIVGDKRTEIHGRESYIEWLREELEHWRIHHIQLRRSTAIGDFAVVDGELDGEFNGQRERRKVKVDLFVVNGQTKHIEFRIH”: 1.19; for “SELEKHIKDYFDYIFTLLLTGDWDTLWRMADPNVRFHAEGHEIHGRELWEEFIRKFKNIKVHLHRSSLIGDYLFLDGELEINGRRIRTEIELVIVNGRLTEVSHRLR”: 0.807; for “SELEKHLEDVASMWLKVIQTGDWDKLFELADPNVRFEQIYGDKKVELHGREEMIEWLRKFMEQMRTEHRIHSMEVQGDKVHLDTRVILDFNGVRIHLETRVIIIVVNGRLHSYSEHVK”: 1.31.
Consider “SELEKLAEEMLELFIEIFLTGDWRTFLRLADPHTRLNVDGKNNHGREEVRRHLEEELRQMRWHDVKIHDFDVIGEKAHVRLRVDGIINGRRIDFEMELEITVVNGVIKDVRVRRR”, for which the protease stability score worked out at 1.48.
The same measure for “SELEKLLLDIARKLIHSYLTGDWRTFQELADPNVKIRVVVGDKEERIHGRENIIEWLERERKQYDHIEVRIDDERTIGDKLHIDGTFIIRVDGKTRFSRVEIHLLIIDGKVTSLEFHEK”: 1.07.
Sequence “SELEKLSHELARLLIENWETGDWKRFIDLIDPHAKLHIGDKDHIGREEITRFLKEVWHRFDHIEMRIHHIKVIGNYAHSDGEMIININGQERRHDVEIIVVVVNGVVHSVEIHIE” gave a protease stability score of 1.9.
In the case of “SELEKYSKLMLDLILHSRLTGDEEHHEKLMDPNVRIEIGDKELHGRELAVKWMSHWRLEELRVRHIHNQGDKINVDVEEVETVDGVRIRFRSELIILKVDGQWLNHSIITR”, the protease stability score stood at 1.16.
Consider “SELEQELKHFVRLMKEIMRTGNWDLFERYADPNVRLEINGRDYIGRELASESLRHFVEEWGLDRVDVRVEHSSFQGDKAHSKINTDFNGQERTVHYDVLKVDGRWIVQRVRIE”, for which the protease stability score stood at 2.06.
The same measure for “SELEQMWREAKETIEKINKTGDPRSLLENADPTVRTDYGEKDYHGREEFKKFLEWLGIKHIKDVRFRDFEVQGDKIIHDSEVDVEVGDKEFRIKSIVIALKVDGRWLITRLVFK”: 1.9; for “SELERDAEMAFKIYKHNIETGNEEELDKLVDPNVRLEAENHSTHGREDWYNLMRHFGVKHTDVKDFRIQGDKIHLHGVLHFNGRTFKITLYVHKFDGRWHIKSVEVH”: 0.364; for “SELERHAKEIAKIFSEVESTGDEDRMWELVDPDVRLHVGDKEFHGMEWVITLIREHLRHIRLKHVEITHIRVIDGRVDVDTRIHGIINGRELVTKSRIIIDKINGRWLVSSLKYE”: 1.15.
With “SELERLIMEMLHLLIELWLTGDEETLSKLIDPNTRLIVIQGDKHIIVHGRELVLHIMRRIREEIRFEDSRIRSMDAQGNKASINEEMHFRIGDKEVRFEREVEVWVIDGKLHSLVIRIK” the figure was 0.871; with “SELERQIERANRELVDIIYTGDEHLVDRMLDPRTLLTVGDKHTIGREEMIEWFKHHIREMRIRHSDTKDPHFINGVIDSHLYLDMEFDGRRFISRTRLIVLKIDGRWHIERITII”, 0.687; with “SELHEDAEEIAKQFSRAWTTGDFEELDKLFDPNARIEYGDYEVHGRHIVSKFLRQIRIKEVRFIVRRVEHYDGRIRLWGELTLHGNINGRDFDLHTKSDLLVIKIDGRWVVEQYIIR”, 1.47.
The same measure for “SELHEEAEELTEKIIRILLTGNEHFFSELVDPDVRTNVDGKELHGREEALRKFEEMRRKLGYDRVRVELRKYTVFDGRVEVVTELNVNGRRLEYIWRMHKVDGRWSLHIWEIR”: 2.65; for “SELHEEIHKMVQEFLELFLTGDFHRIKQLMDPNVKLIYGDKLFHGRENVEKLHEELRWRYKNATIHVDLREITIFENRAVTDTSIEFDVNGKHISHETKVIIEKIDGQWVIKSIYIN”: 2.13.
Sequence “SELHEEVRHIAEQWVKSWITGDEHLLQKLADPHVRFKIGDKSNHGRENVIKEIRRLEEEHGAEERIIITHVRVVGDKYELHGTYELRIGDKHETRHLHIEIWVVNGVVKEIDIQID” displayed a protease stability score of 1.07.
With “SELHEKLKRDMDILEELLLTGDWEKLLKYIDPHARLEIGDKEVHGREILSEVFRDVFERIKNARIHIEHSEAINGRFDIHSEWIVNGKNRRVHIETVVINGRVDKLYFEIRHR” the figure was 1.05; with “SELHKFAEELSRRWFEMVLTGDEDSLNELADPNVRNDVNGRELIGRESFAKWVKELRIEDVRHKRSRIEVQGDKMIIHMDIESVVTIDGVRRDQRYEIIIISRKVNGRWLVHSVEFRVE”, 1.18.
